Reference: US20170137467A1 (CHROMOTEK, published 2017)

Assays:
Assay in all cases: peptide library pulldown on immobilized Nb, LC-MS of supernatant; ratio vs GFP-Nb control (1 = not captured, 0 = captured)
[1] = target: T1, BC2T S8V library peptide (human)
T1 construct: also called BC2TS8X: V
T1 peptide: Ac-PDRKAAVVHWQQ-NH2
Summary of the method: (§1)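 Unbound peptide left in supernatant after 1 h pulldown in PBS/0.01% CHAPS measured by reversed-phase LC-MS (8–30% eluent B gradient, 20 min).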

[2] = target: T2, BC2T Q12D library peptide (human)
T2 peptide: Ac-PDRKAAVSHWQD-NH2
Summary of the method: as §1

[3] = target: T3, BC2T S8T library peptide (human)
T3 construct: also called BC2TS8X: T
T3 peptide: Ac-PDRKAAVTHWQQ-NH2
Summary of the method: as §1

[4] = target: T4, BC2T S8Y library peptide (human)
T4 construct: also called BC2TS8X: Y
T4 peptide: Ac-PDRKAAVYHWQQ-NH2
Summary of the method: as §1

[5] = target: T5, BC2T S8E library peptide (human)
T5 construct: also called BC2TS8X: E
T5 peptide: Ac-PDRKAAVEHWQQ-NH2
Summary of the method: as §1

[6] = target: T6, BC2T W10V library peptide (human)
T6 construct: also called BC2TW10X: V
T6 peptide: Ac-PDRKAAVSHVQQ-NH2
Summary of the method: as §1

[7] = target: T7, BC2T W10T library peptide (human)
T7 construct: also called BC2TW10X: T
T7 peptide: Ac-PDRKAAVSHTQQ-NH2
Summary of the method: as §1

[8] = target: T8, BC2T W10Y library peptide (human)
T8 construct: also called BC2TW10X: Y
T8 peptide: Ac-PDRKAAVSHYQQ-NH2
Summary of the method: as §1

[9] = target: T9, BC2T W10D library peptide (human)
T9 construct: also called BC2TW10X: D
T9 peptide: Ac-PDRKAAVSHDQQ-NH2
Summary of the method: as §1

[10] = target: T10, BC2T W10E library peptide (human)
T10 construct: also called BC2TW10X: E
T10 peptide: Ac-PDRKAAVSHEQQ-NH2
Summary of the method: as §1

[11] = target: T11, BC2T Q11A library peptide (human)
T11 peptide: Ac-PDRKAAVSHWAQ-NH2
Summary of the method: as §1

[12] = target: T12, BC2T Q11W library peptide (human)
T12 peptide: Ac-PDRKAAVSHWWQ-NH2
Summary of the method: as §1

[13] = target: T13, BC2T Q11T library peptide (human)
T13 peptide: Ac-PDRKAAVSHWTQ-NH2
Summary of the method: as §1

[14] = target: T14, BC2T Q11Y library peptide (human)
T14 peptide: Ac-PDRKAAVSHWYQ-NH2
Summary of the method: as §1

[15] = target: T15, BC2T Q11K library peptide (human)
T15 peptide: Ac-PDRKAAVSHWKQ-NH2
Summary of the method: as §1

[16] = target: T16, BC2T S8A library peptide (human)
T16 construct: also called BC2TS8X: A
T16 peptide: Ac-PDRKAAVAHWQQ-NH2
Summary of the method: as §1

[17] = target: T17, BC2T Q12(I/L) library peptide, version 1 (N-terminal acetyl, C-terminal amide)
T17 construct: Ile and Leu versions are isobaric; two versions resolved but not assigned; also called I/L1
Summary of the method: as §1

[18] = target: T18, BC2T Q12M library peptide (human)
T18 peptide: Ac-PDRKAAVSHWQM-NH2
Summary of the method: as §1

[19] = target: T19, BC2T Q12T library peptide (human)
T19 peptide: Ac-PDRKAAVSHWQT-NH2
Summary of the method: as §1

[20] = target: T20, BC2T Q12K library peptide (human)
T20 peptide: Ac-PDRKAAVSHWQK-NH2
Summary of the method: as §1

B1: BC2-Nb(R106E) (VHH)
VHH: QVQLVESGGGLVQPGGSLTLSCTASGFTLDHYDIGWFRQAPGKEREGVSCINNSDDDTYYADSVKGRFTIFMDNAKDTVYLQMNSLKPEDTAIYYCAEARGCKRGEYEYDFWGQGTQVTVSS
notes: Headlock mutant; immobilized on beads in the library pulldown
With B1 the ratio [1] was 0.2, the ratio [2] was 0.8 and the ratio [3] was 0.1. The ratio [4] was 0.9, the ratio [5] was 0.9 and the ratio [6] was 1. For the same binder, the ratio [7] was 1.1, the ratio [8] was 1 and the ratio [9] was 1.1. For the same binder, the ratio [10] was 1.2, the ratio [11] was 0.3 and the ratio [12] was 0.1. The ratio [13] was 0.2, the ratio [14] was 0.1 and the ratio [15] was 0.1. The ratio [16] was 0.1, the ratio [17] was 0.1 and the ratio [18] was 0.2. For the same binder, the ratio [19] was 0.1 and the ratio [20] was 0.
